Test results reported in the supplement of paper PMC11246515.
± gives the standard deviation of the averaged measurements.

Assay: total protein half-life in vivo (active degradation + dilution); higher = more stable protein
[1] = E. coli NCM3722 delta-clpP delta-lon delta-hslV, growth: N-lim chemostat, doubling time 6 h
[2] = E. coli NCM3722 delta-clpP, growth: N-lim chemostat, doubling time 6 h
[3] = E. coli NCM3722 delta-hslV, growth: N-lim chemostat, doubling time 6 h
[4] = E. coli NCM3722 delta-lon, growth: N-lim chemostat, doubling time 6 h
[5] = E. coli NCM3722 delta-smpB, growth: N-lim chemostat, doubling time 6 h
[6] = wild type E. coli NCM3722, growth: C-lim chemostat, doubling time 3 h
[7] = wild type E. coli NCM3722, growth: C-lim chemostat, doubling time 6 h
[8] = wild type E. coli NCM3722, growth: N-lim chemostat, doubling time 6 h
[9] = wild type E. coli NCM3722, growth: P-lim chemostat, doubling time 6 h
[10] = wild type E. coli NCM3722, growth: P-lim chemostat, doubling time 12 h
[11] = wild type E. coli NCM3722, growth: C-lim chemostat, doubling time 12 h

| Sequence | total protein half-life in vivo [1] [h] | total protein half-life in vivo [2] [h] | total protein half-life in vivo [3] [h] | total protein half-life in vivo [4] [h] | total protein half-life in vivo [5] [h] | total protein half-life in vivo [6] [h] | total protein half-life in vivo [7] [h] | total protein half-life in vivo [8] [h] | total protein half-life in vivo [9] [h] | total protein half-life in vivo [10] [h] | total protein half-life in vivo [11] [h] | total protein half-life in vivo (wild type E. coli NCM3722, growth: N-lim chemostat, doubling time 12 h) [h] |
| --- | --- | --- | --- | --- | --- | --- | --- | --- | --- | --- | --- | --- |
| MILERVEIVGFRGINRLSLMLEQNNVLIGENAWGKSSLLDALTLLLSPESDLYHFERDDFWFPPGDINGREHHLHIILTFRESLPGRHRVRRYRPLEACWTPCTDGYHRIFYRLEGESAEDGSVMTLRSFLDKDGHPIDVEDINDQARHLVRLMPVLRLRDARFMRRIRNGTVPNVPNVEVTARQLDFLARELSSHPQNLSDGQIRQGLSAMVQLLEHYFSEQGAGQARYRLMRRRASNEQRSWRYLDIINRMIDRPGGRSYRVILLGLFATLLQAKGTLRLDKDARPLLLIEDPETRLHPIMLSVAWHLLNLLPLQRIATTNSGELLSLTPVEHVCRLVRESSRVAAWRLGPSGLSTEDSRRISFHIRFNRPSSLFARCWLLVEGETETWVINELARQCGHHFDAEGIKVIEFAQSGLKPLVKFARRMGIEWHVLVDGDEAGKKYAATVRSLLNNDREAEREHLTALPALDMEHFMYRQGFSDVFHRMAQIPENVPMNLRKIISKAIHRSSKPDLAIEVAMEAGRRGVDSVPTLLKKMFSRVLWLARGRAD | 6.44 ± 0.23 | 2.21 | – | – | – | – | – | – | – | – | – | – |
| MILFVGFLLMEIVMPQISRTALVPYSAEQMYQLVNDVQSYPQFLPGCTGSRILESTPGQMTAAVDVSKAGISKTFTTRNQLTSNQSILMNLVDGPFKKLIGGWKFTPLSQEACRIEFHLDFEFTNKLIELAFGRVFKELAANMVQAFTVRAKEVYSAR [P0AGL5] | 0.854 ± 0.18 | 0.857 | 0.542 | 0.962 | 0.621 ± 0.022 | 0.306 | 0.545 | 0.714 | 0.372 | 1.13 ± 0.68 | – | – |
| MILHPSLASANPLHYGRELTALDNLDFGSLHLDIEDSSFINNITFGMKTVQAVARQTPHPLSFHFMLARPQRWFNALAEIRPAWIFVHAETLDYPSETLTEIRHTGARAGLVFNPATPIDAWRYLASELDGVMVMTSEPDGQGQRFIPSMCEKIQKVRTAFPQTECWADGGITLAAAQQLAAAGAQHMVIGRALFSSSDYRATLAQFATL | 5.63 ± 0.16 | – | – | – | – | – | 1.44 | – | – | – | 0.974 | – |
| MINYGVVGVGYFGAELARFMNMHDNAKITCVYDPENGENIARELQCINMSSLDALVSSKLVDCVIVATPNYLHKEPVIKAAKNKKHVFCEKPIALSYEDCVDMVKACKEAGVTFMAGHIMNFFNGVQYARKLIKEGVIGEILSCHTKRNGWENKQERLSWKKMKEQSGGHLYHHIHELDCVQHLLGEIPETVTMIGGNLAHSGPGFGNEDDMLFMTLEFPSGKLATLEWGSAFNWPEHYVIINGTKGSIKIDMQETAGSLRIGGQTKHFLVHETQEEDDDRRKGNMTSEMDGAIAYGHPGKKTPLWLASLIRKETLFLHNILCGAKPEEDYIDLLNGEAAMSAIATADAATLSRSQDRKVKISEIIKHTSVM | 5.16 | 4.32 | 4.31 ± 0.18 | 4.79 ± 0.4 | 4.29 ± 0.068 | 2.75 ± 0.66 | 6.07 ± 0.59 | 4.39 ± 0.38 | 6.27 ± 0.24 | 13.4 ± 1.4 | 11.2 ± 1.7 | 7.48 ± 0.85 |
